From PMC11929097, “Stabilized designs of the malaria adhesin protein PvRBP2b for use as a potential diagnostic for Plasmodium vivax [image fx2.gif]” (The Journal of Biological Chemistry, 2025)
Several values for one entry are separate records, joined by “and”; a condition that tells them apart may be missing. Identical values can stand only once.

What was measured:
Test in all cases: BLI; Octet RED96; human mAb loaded on anti-human IgG Fc capture sensor tips; parental PvRBP2b169-470 or design in solution, 2-fold series 0.63 to 10 nM; 25 °C; PBS, 0.1% bovine serum albumin, 0.05% Tween-20; global fit 1:1 model; two independent experiments
Conditions in all cases: both partners purified
[1] = biological target: T1, parental PvRBP2b_(169-470) (Plasmodium vivax reticulocyte-binding protein 2b, N-terminal domain) (Plasmodium vivax strain Salvador I, UniProt A5K736)
T1 construct: TEV cleavage site between the His tag and the protein; pPROEX HTb vector; also called parental construct; parental protein

[2] = biological target: T2, WHT2483 (PROSS-MPNN stabilized design of PvRBP2b_(169-470)) (Plasmodium vivax strain Salvador I …, Gln378Leu | Arg418Glu)
T2 construct: PvRBP2b, P. vivax strain Salvador I, PVX_094255, residues 169-470 with 19 designed stabilising mutations; 19 mutations relative to the parental protein; crystal structure PDB 9DZC solved here
T2 chain: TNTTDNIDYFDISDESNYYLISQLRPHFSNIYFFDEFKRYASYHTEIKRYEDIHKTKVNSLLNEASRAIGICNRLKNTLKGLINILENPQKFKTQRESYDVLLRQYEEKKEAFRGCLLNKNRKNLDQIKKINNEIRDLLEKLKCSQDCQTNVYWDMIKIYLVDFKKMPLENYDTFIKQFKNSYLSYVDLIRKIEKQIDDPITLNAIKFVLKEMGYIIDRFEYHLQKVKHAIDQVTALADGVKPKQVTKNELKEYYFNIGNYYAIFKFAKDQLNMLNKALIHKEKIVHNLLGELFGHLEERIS

[3] = biological target: T3, WHT2484 (PROSS-MPNN stabilized design of PvRBP2b_(169-470)) (Plasmodium vivax strain Salvador I …, Lys248Leu | Met324Phe | Gln378Leu | Arg418Glu)
T3 construct: PvRBP2b, P. vivax strain Salvador I, PVX_094255, residues 169-470 with 26 designed stabilising mutations; 26 mutations relative to the parental protein; crystal structure PDB 9DZD solved here
T3 chain: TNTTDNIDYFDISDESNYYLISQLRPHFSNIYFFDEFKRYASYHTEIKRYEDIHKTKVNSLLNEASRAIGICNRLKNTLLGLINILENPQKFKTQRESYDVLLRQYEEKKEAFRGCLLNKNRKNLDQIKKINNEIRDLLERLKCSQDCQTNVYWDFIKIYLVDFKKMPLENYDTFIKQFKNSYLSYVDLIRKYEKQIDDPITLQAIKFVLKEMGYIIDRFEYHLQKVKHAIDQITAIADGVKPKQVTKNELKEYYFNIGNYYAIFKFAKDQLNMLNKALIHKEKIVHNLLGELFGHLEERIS

Binder | Kd [1] [nM] | koff [1] [s⁻¹] | kon [1] | Kd [2] | kon [3] | kon [2] | Kd [3] | koff [2] | koff [3]
human mAb 237235 (antibody, V domains shown, naturally acquired human mAb, recombinant IgG captured by its Fc; source: Expi293 HEK cells, transfected, purified (protein A, SEC)) VH: QVQLVESGGGVVQPGRSLRLSCAASGFMFNSYGMHWVRQAPGKGLEWMAFISYDGSDDYYGDSVKGRITISRDNSKNTLFLHINSLRTEDTAVYYCAKESNYGENAFDVWGHGTMVTVSS VL: QSALTQPRSVSGSPGQSVTISCTGTSNDVGFYNFVSWYQHHPGKAPKLMIYDVTERPSGVPDRFSGSKSGNTASLTISGLQAEDEAEYYCCSYAGTYTFVFGHGTKVTVL | < 0.001 | < 1e-07 | 1.78e+06 M⁻¹ s⁻¹ and 1.31e+06 M⁻¹ s⁻¹ | ≤ 0.01 nM | 658000 M⁻¹ s⁻¹ and 745000 M⁻¹ s⁻¹ |  |  |  | 
human mAb 241242 (antibody, V domains shown, naturally acquired human mAb, recombinant IgG captured by its Fc; source: Expi293 HEK cells, transfected, purified (protein A, SEC)) VH: EVQLLESGGGLVQPGGSLRLSCAVSGFTFRNYALSWVRQAPGKGLDWVSTISASGGATYYADSVKGHFTISRDNSKNILYLDMKSLRAEDTAIYYCARDGGSYTPYFFLDSWGQGALVTVSS VL: SYELTQPASVSVAPGQTAQITCGGNSIGRKSIHWYQHKPGQAPVLVISYDSDRPSGIPERFSGSNSGNTATLTISKVEAGDEADFYCQVRDSDNDHVVFGGGTKLTVL | < 0.001 | < 1e-07 | 1.24e+06 M⁻¹ s⁻¹ and 1.52e+06 M⁻¹ s⁻¹ |  | 956000 M⁻¹ s⁻¹ and 1.18e+06 M⁻¹ s⁻¹ |  |  |  | 
human mAb 243244 (antibody, V domains shown, naturally acquired human mAb, recombinant IgG captured by its Fc; source: Expi293 HEK cells, transfected, purified (protein A, SEC)) VH: QVQLVESGGGVVQSGKSLRVSCAASGFTFSSYGMHWVRQAPGKGLEWVAFISYDGDNKYSADSVKGRLTISRDNSKNTLYLQMNSLRPEDTAVYYCAKESNYGENAFDIWGQGTMVTVSS VL: QSALTQPRSVSGSPGQSVTISCTGTSSDVGFYNFVSWYQHHPGKAPKLIIYDVSERPSGVPDRFSGSKSGNTASLSISGLQPEDEADYYCCSYAGTYTFVFGSGTKVTVL | < 0.001 | < 1e-07 | 1.75e+06 M⁻¹ s⁻¹ and 1.32e+06 M⁻¹ s⁻¹ | 0.053 nM and 0.018 nM | 705000 M⁻¹ s⁻¹ and 780000 M⁻¹ s⁻¹ | 1.02e+06 M⁻¹ s⁻¹ and 1.24e+06 M⁻¹ s⁻¹ |  |  | 
human mAb 251249 (antibody, V domains shown, naturally acquired human mAb, recombinant IgG captured by its Fc; source: Expi293 HEK cells, transfected, purified (protein A, SEC)) VH: EVQLVESGGGLVKPGGSLRLSCEASGFLFSSYSMNWVRQAPGKGLEWVSSITGYSSEVFYTDSVKGRFTVSRDNSKNSLYLQMDSLRAEDTAVYYCARALTIFGVVITDYWFFDLWGRGTLVTVSS VL: EIVLTQSPATLSLSPGDRATLSCRASQSVTTFLAWYQQKPGQAPRLLIYDVSNRATGIPARFSGSGSGTDFTLTISSLEPEDFAVYYCQQRSNWGLTFGGGTKVEIK | < 0.001 | < 1e-07 | 1.63e+06 M⁻¹ s⁻¹ and 1.25e+06 M⁻¹ s⁻¹ |  | 956000 M⁻¹ s⁻¹ and 1.26e+06 M⁻¹ s⁻¹ | 978000 M⁻¹ s⁻¹ and 1.37e+06 M⁻¹ s⁻¹ | 0.11 nM and 0.314 nM |  | 
human mAb 253245 (antibody, V domains shown, naturally acquired human mAb, recombinant IgG captured by its Fc; source: Expi293 HEK cells, transfected, purified (protein A, SEC)) VH: EVQLVQSGAEVKKPGSSMKVSCKASGGTFNRYVFSWVRQAPGQGLEWMGGILPILETTYYAKNFKGRVTITADESTSTVYMELSSLTSEDTAVYFCARDEHDYVWGSYRPSLTGPWGQGTLVTVSS VL: QSALTQPPSTSGSPGQSVTISCTGTGIDVGGFSYVSWFQYHPGKAPKLIIFEVTKRPSGVPDRFSGSKSGNTASLTISGLQADDEAEYYCSSYAVNNNFVFGTGTKVTVL | < 0.001 | < 1e-07 | 1.58e+06 M⁻¹ s⁻¹ and 1.18e+06 M⁻¹ s⁻¹ |  | 1.06e+06 M⁻¹ s⁻¹ and 1.12e+06 M⁻¹ s⁻¹ | 1.04e+06 M⁻¹ s⁻¹ and 1.26e+06 M⁻¹ s⁻¹ |  |  | 
human mAb 258259 (antibody, V domains shown, naturally acquired human mAb, recombinant IgG captured by its Fc; source: Expi293 HEK cells, transfected, purified (protein A, SEC)) VH: EVQLLESGGGLVRPGGSQRLSCAASGFTFTPYAMTWVRQAPGKGLEWLSTISGSGGSTYYADSVKGRFTISRDNSKNMLYLQMNSLTAEDTALYYCTKDKDEYTFGHNAFDVWGQGTMVTVSS VL: SYELTQAPSVSVAPGQTARITCGGDNIGRKTVNWYQQKPGQAPVLVIYYDNDRPSGIPERFSGSNSGNMATLSISRVEVGDEADYYCQVWDSNNDHPVFGGGTKLTVV | < 0.001 | < 1e-07 | 1.33e+06 M⁻¹ s⁻¹ and 976000 M⁻¹ s⁻¹ | 0.085 nM and 0.059 nM | 778000 M⁻¹ s⁻¹ and 953000 M⁻¹ s⁻¹ | 778000 M⁻¹ s⁻¹ and 949000 M⁻¹ s⁻¹ | 0.069 nM and 0.081 nM | 6.59e-05 s⁻¹ and 5.6e-05 s⁻¹ | 5.39e-05 s⁻¹ and 7.69e-05 s⁻¹
human mAb 273264 (antibody, V domains shown, naturally acquired human mAb, recombinant IgG captured by its Fc; source: Expi293 HEK cells, transfected, purified (protein A, SEC)) VH: EVQLLESGGGLVRPGGSQRLSCAASGFTFTPYAMTWVRQAPGKGLEWLSTISGSGGSTSYADSVKGRFTISRDNSKNILYLQMDSLRAEDTALYYCTKDKDEYTFGHNAFDVWGRGTMVTVSS VL: SYELTQAPSVSVAPGQTARITCGGDNIGRTSVHWYQQKPGQAPVLVIFYDNDRPSGIPERFSGSNSGNMATLSISRVEVGDEADYYCQVWDSNNDHPVFGGGTKLTVV | < 0.001 | < 1e-07 | 1.18e+06 M⁻¹ s⁻¹ and 1e+06 M⁻¹ s⁻¹ | 0.089 nM and 0.154 nM | 893000 M⁻¹ s⁻¹ and 1.05e+06 M⁻¹ s⁻¹ | 778000 M⁻¹ s⁻¹ and 1.07e+06 M⁻¹ s⁻¹ | 0.139 nM and 0.101 nM | 6.92e-05 s⁻¹ and 0.000165 s⁻¹ | 0.000124 s⁻¹ and 0.000106 s⁻¹
human mAb 283284 (antibody, V domains shown, naturally acquired human mAb, recombinant IgG captured by its Fc; source: Expi293 HEK cells, transfected, purified (protein A, SEC)) VH: QVQLQQWGAGLLKPSETLALTCTVYGGSSSGYYWNWIRQSPGKGLEWIGEISDSGSTIYNPSLESRVTMSVDTSKNQFSLKLTSVTAADTAVYYCAKAILTRYNWLDPWSQGTLVTVSS VL: DIVMTQSPSSLSASVGDRISISCRASQGVNSALAWYQQKPGKAPKLLIYDASTLESGVPSRFSGSGSGTDFALTINSLQPEDFATYYCQQFNSYPLTFGGGTKVEIK | < 0.001 | < 1e-07 | 1.48e+06 M⁻¹ s⁻¹ and 994000 M⁻¹ s⁻¹ |  | 1.01e+06 M⁻¹ s⁻¹ and 936000 M⁻¹ s⁻¹ | 838000 M⁻¹ s⁻¹ and 910000 M⁻¹ s⁻¹ | 0.112 nM and 0.074 nM |  | 0.000113 s⁻¹ and 6.89e-05 s⁻¹
